We go through 17 molecules from patent US20230020729A1 (Memorial Sloan Kettering, published 2023).

The labels stand for the following.
T1: human Fc Receptor-Like 5 (FcRL5), full length, expressed on cells (human, UniProt Q96RD9 16-977)
T1 construct: also called CD307e; IRTA2
T1 sequence: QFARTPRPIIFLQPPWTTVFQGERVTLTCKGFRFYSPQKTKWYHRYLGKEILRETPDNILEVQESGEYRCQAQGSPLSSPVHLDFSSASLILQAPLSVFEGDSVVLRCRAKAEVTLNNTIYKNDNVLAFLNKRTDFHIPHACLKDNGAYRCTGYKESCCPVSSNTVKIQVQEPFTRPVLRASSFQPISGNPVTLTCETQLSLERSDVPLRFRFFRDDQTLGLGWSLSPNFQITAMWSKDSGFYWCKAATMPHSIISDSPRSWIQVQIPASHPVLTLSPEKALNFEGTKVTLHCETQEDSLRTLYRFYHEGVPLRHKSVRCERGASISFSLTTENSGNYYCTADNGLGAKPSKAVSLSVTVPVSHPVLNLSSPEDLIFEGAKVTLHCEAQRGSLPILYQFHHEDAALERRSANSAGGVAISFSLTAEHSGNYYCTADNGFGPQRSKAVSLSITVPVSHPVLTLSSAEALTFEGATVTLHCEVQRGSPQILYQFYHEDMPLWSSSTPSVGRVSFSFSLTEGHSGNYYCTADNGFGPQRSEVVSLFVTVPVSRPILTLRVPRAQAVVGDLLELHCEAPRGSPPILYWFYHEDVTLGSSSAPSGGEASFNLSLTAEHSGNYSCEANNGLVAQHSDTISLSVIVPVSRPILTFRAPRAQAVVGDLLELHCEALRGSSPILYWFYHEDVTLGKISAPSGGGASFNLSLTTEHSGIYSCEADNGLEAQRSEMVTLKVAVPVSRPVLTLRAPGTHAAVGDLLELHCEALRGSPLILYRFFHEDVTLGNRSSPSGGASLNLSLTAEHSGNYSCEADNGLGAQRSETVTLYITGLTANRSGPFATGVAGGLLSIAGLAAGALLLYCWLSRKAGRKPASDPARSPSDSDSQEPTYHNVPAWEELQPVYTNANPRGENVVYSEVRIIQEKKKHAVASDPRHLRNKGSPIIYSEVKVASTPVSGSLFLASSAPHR

B1: ET200-021 scFv (scFv)
scFv: QSVLTQPPSVSAAPGQKVTISCSGSNSNIGNNYVSWYQQLPGTAPKLLIYDNNKRPSGIPDRFSGSRSGTSATLGITGLQTGDEADYYCGTWNTTVTPGYVFGTGTKVTVLGSRGGGGSGGGGSGGGGSLEMAEVQLVQSGAEVKKPGASVKVSCKASGYTFTSYGISWVRQAPGQGLEWMGWISAYNGNTNYAQKLQGRVTMTTDTSTSTAYMELRSLRSDDTAMYYCARSVYDLDTWGQGTLVTVSS
notes: VL-linker-VH; screened as scFv phage clone
B2: ET200-016 scFv (scFv)
scFv: SSELTQDPAVSVALGQTVKITCQGDSLTDYHATWYQQKPGQAPVAVIYATNNRPTGIPDRFSGSSSGNTASLTITGAQAEDEADYYCNSRDSGTDEVLFGGGTKLTVLGSRGGGGSGGGGSGGGGSLEMAEVQLVETGGGLVKPGGSLRLSCAASGFTFSSYSMNWVRQAPGKGLEWVSSISSSSSYIYYADSVKGRFTISRDNAKNSLYLQMNSLRAEDTAVYYCARGQGYDYWGQGTLVTVSS
notes: as for B1
B3: ET200-014 scFv (scFv)
scFv: SYVLTQPPSVSVAPGKTARITCGGNNIGSKSVHWYQQKPGQAPVLVIYYDSDRPSGIPERFSGSNSGNTATLTISRVEAGDEADYYCQVWDSSSDHYVFGTGTKVTVLGSRGGGGSGGGGSGGGGSLEMAEVQLVETGGGLVQPGGSLRLSCAASGFTFSSYAMSWVRQAPGKGLEWVSAISGSDGSTYYADSVKGRFTISRDNSKNTLYLQMNSLRDEDTAVYYCARSHEANLVGDWWGQGTLVTVSS
notes: as for B1
B4: ET200-039 scFv (scFv)
scFv: NFMLTQPHSVSESPGKTVTISCTRSSGSIASNYVQWYQQRPGSSPTTVIYEDNQRPSGVPDRFSGSIDSSSNSASLTISGLKTEDEADYYCQSYDSSNWVFGGGTKLTVLGSRGGGGSGGGGSGGGGSLEMAEVQLVQSGAEVKKPGSSVKVSCKASGGTFSSYAISWVRQAPGQGLEWMGGIIPIFGTANYAQKFQGRVTITADESTSTAYMELSSLRSEDTAVYYCARSNYYYNDYWGQGTLVTVSS
notes: VL-linker-VH; screened as scFv phage clone; also called ET200-39
B5: ET200-035 scFv (scFv)
scFv: NFMLTQPHSVSESPGKTVTISCTRSSGSIASNYVQWYQQRPGSAPTTVIYEDNQRPSGVPDRFSGSIDSSSNSASLTISGLKTEDEADYYCQSYDSTNWVFGGGTKLTVLGSRGGGGSGGGGSGGGGSLEMAQVQLVQSGAEVKKPGSSVKVSCKASGGTFSSYAISWVRQAPGQGLEWMGGIIPIFGTANYAQKFQGRVTITADESTSTAYMELSSLRSEDTAVYYCARYNYYFNDYWGQGTLVTVSS
notes: as for B1
B6: ET200-026 scFv (scFv)
scFv: NFMLTQPHSVSESPGKTVTISCTGSSGSIASNYVQWYQQRPGSAPTTVIYEDNQRPSGVPDRFSGSIDSSSNSASLTISGLKTEDEADYYCQSYDSSNWVFGGGTKLTVLGSRGGGGSGGGGSGGGGSLEMAEVQLVQSGAEVKKPGSSVKVSCKASGGTFSSYAISWVRQAPGQGLEWMGGIIPIFGTANYAQKFQGRVTITADESTSTAYMELSSLRSEDTAVYYCARNNHYYNDYWGQGTLVTVSS
notes: as for B1
B7: ET200-015 scFv (scFv)
scFv: QSVVTQPPSVSVAPGKTARITCGGNNIGSKSVHWYQQKPGQAPVLVIYYDSDRPSGIPERFSGSNSGNTATLTISRVEAGDEADYYCQVWDSSSDVVFGGGTKLTVLGSRGGGGSGGGGSGGGGSLEMAEVQLVQSGAEVKKPGASVKVSCKASGYTFTSYGISWVRQAPGQGLEWMGWISAYNGNTNYAQKLQGRVTMTTDTSTSTAYMELRSLRSDDTAVYYCARWGGFGAVDHWGQGTLVTVSS
notes: as for B1
B8: ET200-013 scFv (scFv)
scFv: QSVVTQPPSVSGAPGQRVTISCTGSTSNIGAGYDVHWYQQLPGTAPKLLIYTNNFRPSGVPDRFSASKSGTSASLAITGLQAEDEADYYCGTWDSSLSAVVFGGGTKLTVLGSRGGGGSGGGGSGGGGSLEMAEVQLVESGTEVKKPGASVKVSCKASGYMFTSYGLNWVRQAPGQGLEWMGWISANNGKTNYAKKFQDRVTMTRDTSTSTGYMELRSLRSDDTAVYYCARHIGGSYFDRWGQGTLVTVSS
notes: as for B1
B9: ET200-022 scFv (scFv)
scFv: QSVVTQPPSVSAAPGQKVTISCSGSSSNIGNNYVSWYQQLPGTAPKLLIYDNNKRPSGIPDRFSGSKSGTSATLGITGLQTGDEADYYCGTWDSSLGAPYVFGTGTKVTVLGSRGGGGSGGGGSGGGGSLEMAEVQLVQSWGGSEQPGRSLRLSCAASGFTFDDYAMHWVRQAPGKGLEWVSGISWNSGSIGYADSVKGRFTISRDNAKNSLYLQMNSLRAEDTAMYYCARYRQVGSAYDSWGQGTLVTVSS
notes: as for B1
B10: ET200-018 scFv (scFv)
scFv: QAVLTQPPSTSGTPGQRVTISCSGSSSNIGRNGVNWYQQLPGAAPKVLIYNDNQRPSGVPDRVSGSQSGSSGTLAIDGLRSEDEADYYCAAWDDSLHGVVFGGGTKLTVLGSRGGGGSGGGGSGGGGSLEMAQVQLVQSGAEVKKPGASVKVSCKVSGYTLNELSMHWVRQAPGKGLEWMGGFDPEDGETIYAQKFQGRVTMTEDTSTDTAYMELSSLRSEDTAVYYCARGGYGDSWGQGTLVTVSS
notes: as for B1
B11: ET200-019 scFv (scFv)
scFv: NFMLTQPHSVSESPGKTVTISCTRSSGSIASNYVQWYQQRPGSAPTTVIYEDNQRPSGVPDRFSGSIDSSSNSASLTISGLKTEDEADYYCQSYDSSNSWVFGGGTKLTVLGSRGGGGSGGGGSGGGGSLEMAQVQLVQSGAEVKRPGSSVKVSCTASGGTFSSDAISWVRQAPGQGLEWMGGIIPMFGTANYAQKFQGRVTITADESTSTAYMELSSLRSEDTAVYYCAREGYYYPSAYLGSVLNDISSVYDEWGQGTLVTVSS
notes: as for B1
B12: ET200-012 scFv (scFv)
scFv: QSVLTQPPSVSAAAGQKVTISCSGSDSNIGNNYVSWYQHLPGTAPKLLIYDVKNRPSGIPDRFSGSKSGSSATLGIAGLQPGDEADYYCGTWDSRLDAYVFGTGTKVTVLGSRGGGGSGGGGSGGGGSLEMAQMQLVQSGAEVKKPGASVKVSCKTSGFPFNIFGITWVRQAPGQGLEWMGWISGYNGNTDYPQKFQGRVTMSTDTSTSTAYMELRNLKSDDTAVYYCARGAYGGMDTWGQGTLVTVSS
notes: as for B1
B13: ET200-023 scFv (scFv)
scFv: LPVLTQPPSVSVAPGKTARITCGGNNIGSKSVHWYQQKPGQAPVLVVYADSDRPSGIPERFSGSNSGNTATLTISRVEAGDEADYYCQVWDSSSYHNYVFGTGTKVTVLGSRGGGGSGGGGSGGGGSLEMAEVQLVQSGAEVKKPGASVKVSCKASGYTFTSYGISWVRQAPGQGLEWMGWISAYNGNTNYAQKLQGRVTMTTDTSTSTAYMELSSLRSEDTAMYYCARYWGFGVSDRWGQGTLVTVSS
notes: as for B1
B14: ET200-020 scFv (scFv)
scFv: QSVVTQPPSVSAAPGQKVTISCSGSTSNIGNNDVSWYQQLPGTAPKLLIYDNNKRPSGIPDRFSGSKSGTSATLGITGLQTGDEADYYCGTWDSSVSASWVFGRGTKLTVLGSRGGGGSGGGGSGGGGSLEMAQVQLVQSGAEVKKPGASVKVSCKASGYTFTSYGISWVRQAPGQGLEWMGWISAYNGNTNYPQKLQGRVTMTTDPSTSTAYMELRSLRSDDTAVYYCARSMTSFDYWGQGTLVTVSS
notes: as for B1
B15: ET200-002 scFv (scFv)
scFv: NFMLTQPHSVSESPGKTVTISCTRSSGSIASNYVQWYQQRPGSAPTTVIYEDNQRPSGVPDRFSGSIDSSSNSASLTISGLKTEDEADYYCQSYDSSNSVVFGGGTKLTVLGSRGGGGSGGGGSGGGGSLEMAQVQLVQSGTEVKKPGASVRVACKASGYPFNKYDINWVRQAPGQGLEWMGGIIPIFRTTNYAQKFQGRVTITADESTSTAYMELSSLRSEDTAVYYCAREWFYWDIWGQGTLVTVSS
notes: as for B1
B16: ET200-027 scFv (scFv)
scFv: QSVLTQPPSVSGAPGQGVTIPCTGSSSNIGAGYDVHWYQQLPGTAPKLLIYGNNNRPSGVPDRFSGSRSGSSASLAITGLQAEDEADYYCQSYDSSLSDVVFGGGTKVTVLGSRGGGGSGGGGSGGGGSLEMAEVQLVQSGAEVKKPGATVKISCKVSGYTFTDYYMHWVQQAPGKGLEWMGLVDPEDGETIYAEKFQGRVTITADTSTDTAYMELSSLRSEDTAVYYCARYWSYSFDYLYMPEGNDWWGQGTLVTVSS
notes: as for B1
B17: ET200-017 scFv (scFv)
scFv: SYVLTQPPSVSVAPGKTARITCGGNNIGSKSVHWYQQKPGQAPVLVVYDDSDRPSGIPERFSGSNSGNTATLSISRVEAGDEADYYCQVWDSSSDHTVFGTGTKVTVLGSRGGGGSGGGGSGGGGSLEMAQVQLQQWGAGLLKPSETLSLTCAVYGGSFSGYYWSWIRQPPGKGLEWIGEINHSGSTNYNPSLKSRVTISVDTSKNQFSLKLSSVTAADTAVYYCARYYPGMDMWGQGTLVTVSS
notes: as for B1

The assay deals with T1, human Fc Receptor-Like 5 (FcRL5), full …. The experiment in a line: scFv phage: ELISA on His-tag FcRL5, flow cytometry on FcRL5-overexpressing 3T3 and Raji cells. For orientation: An ELISA detects its analyte on a solid surface through an enzyme-linked reagent.
As to B1, the binding result was “binds”.
As to B2, the binding result was “binds”.
The value for B3 was “binds”.
The value for B4 was “binds”; that for B5 was “binds”.
Take B6: the binding result is “binds”.
On to B7, for which the binding result was “binds”.
Consider B8, for which the binding result is reported as “binds”.
For B9 the value was “binds”; for B10, “binds”.
B11: the binding result is recorded as “binds”.
B12: the binding result is given as “binds”.
For B13 the value was “binds”.
Regarding B14, the binding result was “binds”.
Turning to B15, the binding result is given as “binds”.
The value for B16 was “binds”; that for B17 was “binds”.
